Assay results reported in patent publication US5849890.

Biological target: human chorionic gonadotropin (hCG) heterodimer (Homo sapiens) (UniProt P01215+P0DN86)
Assay: filter
Conditions: 2'-F all pyrimidines (RNA transcript of template)

Chain of human chorionic gonadotropin (hCG) heterodimer (Homo sapiens) (P01215 25-116, chain 1 of 2, other chains not shown): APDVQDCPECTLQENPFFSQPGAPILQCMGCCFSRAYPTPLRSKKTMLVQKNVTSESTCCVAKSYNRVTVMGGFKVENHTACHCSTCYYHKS

| Sequence | Kd (estimate, <1% bound at up to 80 uM) | binding (up to 40 uM hCG) |
| --- | --- | --- |
| GGGAGACAAGAAUAAACGCUCAANNNNNNNNNNNNNNNNNNNNNNNNNNNNNNNNNNNNNNNNUUCGACAGGAGGCUCACAACAGGC [2'-F random 40N8 pool] | > 800 µM |  |
| GGGAGGACGAUGCGGNNNNNNNNNNNNNUUGAACGAUCCUUNNNNNNNNNNNNNCAGACGACUCGCCCGA [CG2N7 unselected pool] |  | < 1 % bound |
